The source of these data is the Human Domainome abundance scans (Beltran et al. 2025).

± gives the uncertainty stated by the source.

B1: Transcriptional regulator ERG, residues 117 to 197; numbered along this chain, P11308 (parent)
chain: NMTTNERRVIVPADPTLWSTDHVRQWLEWAVKEYGLPDVNILLFQNIDGKELCKMTKDDFQRLTPSYNADILLSHLHYLRE

This series covers variants of B1. Kind of series: abundance fitness (aPCA) (normalised: wild type 0, dead -1); higher = more abundant; growth selection in yeast, the domain comes from the species named. To be noted: Homo sapiens.
In the case of NMTTNERRVIVPADPTLWSTDHVRQWLEWAVKEYGLPDVNILLFQNIDGKELCKMTKDDFQRLTPSYNADIYLSHLHYLRE [L72Y], the abundance fitness was -0.669 ± 0.18.

Take NMTTNERRVIVPADPTLWSTDHVRQWLEWAVKEYGLPDVNILLFQNIDGKELCKMTKDDFQRLTPSYNADIWLSHLHYLRE [L72W]: the abundance fitness is -0.653 ± 0.087. As for NMTTNERRVIVPADPTLWSTDHVRQWLEWAVKEYGLPDVNILLFQNIDGKELCKMTKDDFQRLTPSYNADILLFHLHYLRE [S74F], the abundance fitness was -0.379 ± 0.13. The value for NMTTNERRVIVPADPTLWSTDHVRQWLEWAVKEYGLPDVNILLFQNIDGKELCKMTKDDFQRLTPSYNADILLVHLHYLRE [S74V] was -0.138 ± 0.066; that for NMTTNERRVIVPADPTLWSTDHVRQWLEWAVKEYGLPDVNILLFQNIDGKELCKMTKDDFQRLTPSYNADILLHHLHYLRE [S74H] was 0.246 ± 0.14. The figure for NMTTNERRVIVPADPTLWSTDHVRQWLEWAVKEYGLPDVNILLFQNIDGKELCKMTKDDFQRLTPSYNADILLMHLHYLRE [S74M] is -0.124 ± 0.095; for NMTTNERRVIVPADPTLWSTDHVRQWLEWAVKEYGLPDVNILLFQNIDGKELCKMTKDDFQRLTPSYNADILLNHLHYLRE [S74N] it is 0.032 ± 0.15. The figure for NMTTNERRVIVPADPTLWSTDHVRQWLEWAVKEYGLPDVNILLFQNIDGKELCKMTKDDFQRLTPSYNADILLPHLHYLRE [S74P] is -0.352 ± 0.12; for NMTTNERRVIVPADPTLWSTDHVRQWLEWAVKEYGLPDVNILLFQNIDGKELCKMTKDDFQRLTPSYNADILLCHLHYLRE [S74C] it is -0.115 ± 0.085; for NMTTNERRVIVPADPTLWSTDHVRQWLEWAVKEYGLPDVNILLFQNIDGKELCKMTKDDFQRLTPSYNADILLTHLHYLRE [S74T] it is 0.078 ± 0.08. As to NMTTNERRVIVPADPTLWSTDHVRQWLEWAVKEYGLPDVNILLFQNIDGKELCKMTKDDFQRLTPSYNADILLDHLHYLRE [S74D], the abundance fitness is -0.064 ± 0.083. The figure for NMTTNERRVIVPADPTLWSTDHVRQWLEWAVKEYGLPDVNILLFQNIDGKELCKMTKDDFQRLTPSYNADILLQHLHYLRE [S74Q] is -0.073 ± 0.1; for NMTTNERRVIVPADPTLWSTDHVRQWLEWAVKEYGLPDVNILLFQNIDGKELCKMTKDDFQRLTPSYNADILLGHLHYLRE [S74G] it is 0.026 ± 0.039. The figure for NMTTNERRVIVPADPTLWSTDHVRQWLEWAVKEYGLPDVNILLFQNIDGKELCKMTKDDFQRLTPSYNADILLIHLHYLRE [S74I] is -0.342 ± 0.17; for NMTTNERRVIVPADPTLWSTDHVRQWLEWAVKEYGLPDVNILLFQNIDGKELCKMTKDDFQRLTPSYNADILLLHLHYLRE [S74L] it is -0.217 ± 0.095; for NMTTNERRVIVPADPTLWSTDHVRQWLEWAVKEYGLPDVNILLFQNIDGKELCKMTKDDFQRLTPSYNADILLRHLHYLRE [S74R] it is 0.006 ± 0.043. The value for NMTTNERRVIVPADPTLWSTDHVRQWLEWAVKEYGLPDVNILLFQNIDGKELCKMTKDDFQRLTPSYNADILTSHLHYLRE [L73T] was -0.016 ± 0.059; that for NMTTNERRVIVPADPTLWSTDHVRQWLEWAVKEYGLPDVNILLFQNIDGKELCKMTKDDFQRLTPSYNADILGSHLHYLRE [L73G] was -0.183 ± 0.047; that for NMTTNERRVIVPADPTLWSTDHVRQWLEWAVKEYGLPDVNILLFQNIDGKELCKMTKDDFQRLTPSYNADILWSHLHYLRE [L73W] was -0.028 ± 0.056.

In the case of NMTTNERRVIVPADPTLWSTDHVRQWLEWAVKEYGLPDVNILLFQNIDGKELCKMTKDDFQRLTPSYNADILHSHLHYLRE [L73H], the abundance fitness was -0.061 ± 0.091. The figure for NMTTNERRVIVPADPTLWSTDHVRQWLEWAVKEYGLPDVNILLFQNIDGKELCKMTKDDFQRLTPSYNADILQSHLHYLRE [L73Q] is -0.144 ± 0.093; for NMTTNERRVIVPADPTLWSTDHVRQWLEWAVKEYGLPDVNILLFQNIDGKELCKMTKDDFQRLTPSYNADILDSHLHYLRE [L73D] it is -0.156 ± 0.12. Regarding NMTTNERRVIVPADPTLWSTDHVRQWLEWAVKEYGLPDVNILLFQNIDGKELCKMTKDDFQRLTPSYNADILSSHLHYLRE [L73S], the abundance fitness is -0.063 ± 0.061. The value for NMTTNERRVIVPADPTLWSTDHVRQWLEWAVKEYGLPDVNILLFQNIDGKELCKMTKDDFQRLTPSYNADILESHLHYLRE [L73E] was -0.293 ± 0.081; that for NMTTNERRVIVPADPTLWSTDHVRQWLEWAVKEYGLPDVNILLFQNIDGKELCKMTKDDFQRLTPSYNADILPSHLHYLRE [L73P] was -0.634 ± 0.2. Take NMTTNERRVIVPADPTLWSTDHVRQWLEWAVKEYGLPDVNILLFQNIDGKELCKMTKDDFQRLTPSYNADILYSHLHYLRE [L73Y]: the abundance fitness was -0.054 ± 0.17. The value for NMTTNERRVIVPADPTLWSTDHVRQWLEWAVKEYGLPDVNILLFQNIDGKELCKMTKDDFQRLTPSYNADILNSHLHYLRE [L73N] was -0.201 ± 0.16. The value for NMTTNERRVIVPADPTLWSTDHVRQWLEWAVKEYGLPDVNILLFQNIDGKELCKMTKDDFQRLTPSYNADILMSHLHYLRE [L73M] was 0.015 ± 0.074; that for NMTTNERRVIVPADPTLWSTDHVRQWLEWAVKEYGLPDVNILLFQNIDGKELCKMTKDDFQRLTPSYNADILRSHLHYLRE [L73R] was -0.039 ± 0.043; that for NMTTNERRVIVPADPTLWSTDHVRQWLEWAVKEYGLPDVNILLFQNIDGKELCKMTKDDFQRLTPSYNADILISHLHYLRE [L73I] was -0.034 ± 0.16. Consider NMTTNERRVIVPADPTLWSTDHVRQWLEWAVKEYGLPDVNILLFQNIDGKELCKMTKDDFQRLTPSYNADILVSHLHYLRE [L73V], for which the abundance fitness was -0.028 ± 0.057.

Take NMTTNERRVIVPADPTLWSTDHVRQWLEWAVKEYGLPDVNILLFQNIDGKELCKMTKDDFQRLTPSYNADILCSHLHYLRE [L73C]: the abundance fitness stood at 0.075 ± 0.092. The figure for NMTTNERRVIVPADPTLWSTDHVRQWLEWAVKEYGLPDVNILLFQNIDGKELCKMTKDDFQRLTPSYNADILASHLHYLRE [L73A] is 0.023 ± 0.052; for NMTTNERRVIVPADPTLWSTDHVRQWLEWAVKEYGLPDVNILLFQNIDGKELCKMTKDDFQRLTPSYNADILKSHLHYLRE [L73K] it is -0.292 ± 0.093.
